Data from patent publication US20240167098, “METHODS FOR PREDICTING TREATMENT OUTCOME TO CHECKPOINT INHIBITORS IN CANCER” (The Brigham and Women`s Hospital, Inc., published 2024).

T1: HNRNPH1 (hnRNP H1) isoform A (UniProt P31943 P31943:1-449)
T1 sequence: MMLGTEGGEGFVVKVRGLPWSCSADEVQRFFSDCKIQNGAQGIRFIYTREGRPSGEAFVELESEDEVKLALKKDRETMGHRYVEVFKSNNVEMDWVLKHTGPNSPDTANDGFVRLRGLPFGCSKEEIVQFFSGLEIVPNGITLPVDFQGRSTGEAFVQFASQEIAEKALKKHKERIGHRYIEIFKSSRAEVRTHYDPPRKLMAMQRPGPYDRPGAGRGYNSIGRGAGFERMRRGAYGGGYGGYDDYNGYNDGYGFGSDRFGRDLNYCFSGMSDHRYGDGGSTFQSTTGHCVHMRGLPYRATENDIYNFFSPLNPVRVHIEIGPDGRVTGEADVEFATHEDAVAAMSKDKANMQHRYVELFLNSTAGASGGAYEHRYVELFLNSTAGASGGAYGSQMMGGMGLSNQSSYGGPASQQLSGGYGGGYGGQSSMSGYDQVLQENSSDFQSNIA


Tests used:
[1] = target: T1, HNRNPH1 (hnRNP H1) isoform A; test: MST; value only in figure; same buffer as INCR1; settings: label: 3' FAM (MST); 32P (EMSA)
Method: (§1) Microscale thermophoresis. MicroScale Thermophoresis experiments were performed according to the NanoTemper technologies protocol in a Monolith NT.115Pico (red/blue) instrument (NanoTemper Technologies). Serial dilutions of HNRNPH1 were done using a buffer containing 50 mM Tris [pH 8.0], 300 mM KCl, 0.02% NP-40, 10% Glycerol, and 0.5 mg/ml Heparin. RNA oligos were labeled with a FAM moiety at their […] (IDT). The RNA concentration was kept constant at 20 nM throughout the experiments. The RNA-protein mixture was incubated at room temperature for 15 mins before running into the MST instrument. The experiments were performed using 40% and 60% MST power and between 20%-80% LED power at 22_C. The MST traces were recorded using the standard parameters: 5 s MST power off, 30 s medium MST power on and 5 s MST power off. The reported measurement values are the combination of two effects: the fast, local environment dependent responses of the fluorophore to the temperature jump and the slower diffusive thermophoresis fluorescence changes. The data presented here are the average of 3 independent experiments. Average normalized fluorescence (%) was plotted against HNRNPH1 concentration to determine the binding constant (Kd). Ligand depletion model with one binding site was used (Using GraphPad Prism 8) to fit the binding which follows the following model: Y=Bmax*X/(Kd+X).

[2] = target: T1, HNRNPH1 (hnRNP H1) isoform A; test: MST; value only in figure; 20 nM RNA, 50 mM Tris pH 8.0, 300 mM KCl, 0.02% NP-40, 10% glycerol, 0.5 mg/ml heparin, 22 C; settings: label: 3' FAM (MST)
Method: as §1

Binder | binding result [1] | binding result [2]
UAAGGGGUGAGGGGCAGGAGAAUGGGUAUGGAUGGAGGUAGA (ssRNA) [PD-L1 RNA oligo] | binds | 
AUACGUGGGAGUGGGGUGCUGAGCUGGGCAGGGUGAGAGUAU (ssRNA) [JAK2 RNA oligo] | binds | 
GGGGCGGGCCGGUUGCCGGGGGGAGCUGGAGUCACGUGACGGC (ssRNA) [INCR1 RNA oligo] |  | binds
